Target: T1, mouse PD-1 (mouse, UniProt Q02242 25-288)
T1 construct: also called 300-mouse PD-1 transfectants; 300-PD-1 transfectants
T1 sequence: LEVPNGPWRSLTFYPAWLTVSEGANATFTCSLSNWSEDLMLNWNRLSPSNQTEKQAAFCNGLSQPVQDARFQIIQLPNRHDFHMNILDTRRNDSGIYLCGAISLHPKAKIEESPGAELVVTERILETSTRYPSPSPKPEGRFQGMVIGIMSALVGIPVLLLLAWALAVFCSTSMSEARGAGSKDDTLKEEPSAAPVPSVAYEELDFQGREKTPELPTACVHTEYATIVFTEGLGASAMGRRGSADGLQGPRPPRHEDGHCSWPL
Experiment: hybridoma screened by flow cytometry on PD-1 transfectants; described in words only
Description: The mice were immunized first with human PD-1-mIgG2a fusion protein (made in Freeman lab) in complete Freund's adjuvant and thereafter with alternating doses of human PD-1-mIgG2a fusion protein and mouse PD-1-Ig fusion protein in incomplete Freund's adjuvant. Mice were given a final boost with antigen and fused with SP2/0 myeloma cells. The PD-1 specific hybridomas were first identified when this fusion was screened by flow cytometry on 300-human PD-1 and 300-mouse PD-1 transfectants. Hybridomas were subcloned to stability. The mAbs were characterized for their capacity to bind to human and/or mouse PD-1 and for their affinity.

binding result: binds
B1: 8H3 mouse anti-mouse PD-1 mAb (antibody, mouse IgG1, V domains shown)
VH: QVQLQQSGAELARPGASVKMSCKASGYTFTSYTMHWVKQRPGQGLEWIGYIHPSTGYIYYNQKFKDKATLTADKSSSTAYMQLSSLTSEDSAVYYCARKGTYLFDYWGQGTTLTVSS
VL: DIVMTQSQKFMSTSVGDRVSVTCKASQNVGTNVAWYQQKPGQSPKALIYSASYRYSGVPDRFTGSGSGTDFTLTISNMQSEDLAEYFCQQYNNYPLTFGAGTMLELK
notes: the light chain is kappa; also called 332.8H3; αPD-1 mAb (8H3)

Source: US20220041726A1 (Dana-Farber, published 2022)
